Values quoted from earlier work in patent US10905736B2, “Ezetimibe-associated ApoA-I mimetic peptides showing enhanced synergism” (The Regents of the University of California, priority 2016, dated 2021).

Settings: two hours after LDLR-/- mice finished eating WD containing Tg6F; cited from earlier work

Sequence: DWLKAFYDKFFEKFKEFF [6F peptide]
- presence of intact peptide in small intestine and plasma: found in the small intestine but not in the plasma
